From US20200332271

Target: dSpCas9 ::KQ KQ insertion (Streptococcus pyogenes) (UniProt Q99ZW2)
Experiment: cell_activity
Conditions: TGG PAM; half the GFP-positive fraction of SpCas9

Chain of UniProt Q99ZW2 (Q99ZW2 whole entry): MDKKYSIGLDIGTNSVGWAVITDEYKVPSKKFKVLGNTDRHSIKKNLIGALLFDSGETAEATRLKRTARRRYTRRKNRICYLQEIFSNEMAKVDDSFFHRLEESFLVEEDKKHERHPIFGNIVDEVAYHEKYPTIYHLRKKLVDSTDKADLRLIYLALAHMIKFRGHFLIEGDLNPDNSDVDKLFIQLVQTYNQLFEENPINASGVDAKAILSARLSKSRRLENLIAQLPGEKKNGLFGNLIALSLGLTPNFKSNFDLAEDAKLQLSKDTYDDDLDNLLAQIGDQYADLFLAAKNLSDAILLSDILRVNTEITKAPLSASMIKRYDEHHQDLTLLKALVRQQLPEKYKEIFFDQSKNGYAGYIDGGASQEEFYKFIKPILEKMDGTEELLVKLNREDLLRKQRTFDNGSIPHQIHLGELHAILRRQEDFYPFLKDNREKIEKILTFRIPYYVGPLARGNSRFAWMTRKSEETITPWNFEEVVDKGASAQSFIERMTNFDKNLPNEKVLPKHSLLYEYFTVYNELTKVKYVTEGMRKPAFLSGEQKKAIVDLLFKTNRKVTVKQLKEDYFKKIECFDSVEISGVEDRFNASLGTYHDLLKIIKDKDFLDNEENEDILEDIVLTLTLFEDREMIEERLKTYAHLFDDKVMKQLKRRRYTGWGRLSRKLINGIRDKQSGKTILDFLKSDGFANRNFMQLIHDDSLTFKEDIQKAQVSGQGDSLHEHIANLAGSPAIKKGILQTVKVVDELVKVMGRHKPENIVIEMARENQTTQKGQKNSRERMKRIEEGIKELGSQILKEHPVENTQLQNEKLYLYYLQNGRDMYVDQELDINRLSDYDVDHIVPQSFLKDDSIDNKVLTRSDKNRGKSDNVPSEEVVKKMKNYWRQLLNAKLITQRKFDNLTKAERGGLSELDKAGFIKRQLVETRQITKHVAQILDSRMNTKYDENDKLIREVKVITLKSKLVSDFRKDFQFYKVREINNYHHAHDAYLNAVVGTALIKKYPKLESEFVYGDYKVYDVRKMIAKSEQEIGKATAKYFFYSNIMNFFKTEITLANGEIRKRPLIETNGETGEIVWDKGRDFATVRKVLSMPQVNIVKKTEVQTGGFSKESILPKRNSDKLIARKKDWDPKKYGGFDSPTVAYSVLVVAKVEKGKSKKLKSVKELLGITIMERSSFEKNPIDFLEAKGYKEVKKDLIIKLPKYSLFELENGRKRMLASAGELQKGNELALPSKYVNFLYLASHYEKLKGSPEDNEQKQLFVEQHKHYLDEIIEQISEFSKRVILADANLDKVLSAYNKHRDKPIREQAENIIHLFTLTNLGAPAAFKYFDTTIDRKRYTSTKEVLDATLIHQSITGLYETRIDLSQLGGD

“CGAAAGGUUUUGCACUCGAC / CGAAAGGTTTTGCACTCGACTGG / CCAGTCGAGTGCAAAACCTTTCG [PAM-SCANR sgRNA spacer ; PAM-SCANR protospacer + TGG PAM]” gave a binding signal (fraction of SpCas9 GFP+ cells) of 0.5.
